# Results from article PMC2119236.
# Experiments:
# [1] = molecular target: H-2Kb class I H chain, beta2m-free, in R1E-Kb cells (mouse); assay: cross-linking
# [2] = molecular target: H-2Db class I H chain, beta2m-free, in R1E-Db cells (mouse); assay: cross-linking
# H-2Db class I H chain, beta2m-free, in R1E-Db cells (mouse), sequence (P01899 25-362): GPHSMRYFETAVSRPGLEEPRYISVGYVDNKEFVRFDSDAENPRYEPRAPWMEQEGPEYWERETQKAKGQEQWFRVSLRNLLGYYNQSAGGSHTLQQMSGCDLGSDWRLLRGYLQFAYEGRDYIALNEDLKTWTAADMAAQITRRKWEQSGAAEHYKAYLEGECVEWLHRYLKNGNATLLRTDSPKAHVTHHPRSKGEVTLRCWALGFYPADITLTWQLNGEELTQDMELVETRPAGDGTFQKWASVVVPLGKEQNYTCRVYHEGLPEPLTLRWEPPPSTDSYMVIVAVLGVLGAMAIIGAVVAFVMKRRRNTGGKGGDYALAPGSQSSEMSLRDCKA
# H-2Kb class I H chain, beta2m-free, in R1E-Kb cells (mouse), sequence (P01901 22-369): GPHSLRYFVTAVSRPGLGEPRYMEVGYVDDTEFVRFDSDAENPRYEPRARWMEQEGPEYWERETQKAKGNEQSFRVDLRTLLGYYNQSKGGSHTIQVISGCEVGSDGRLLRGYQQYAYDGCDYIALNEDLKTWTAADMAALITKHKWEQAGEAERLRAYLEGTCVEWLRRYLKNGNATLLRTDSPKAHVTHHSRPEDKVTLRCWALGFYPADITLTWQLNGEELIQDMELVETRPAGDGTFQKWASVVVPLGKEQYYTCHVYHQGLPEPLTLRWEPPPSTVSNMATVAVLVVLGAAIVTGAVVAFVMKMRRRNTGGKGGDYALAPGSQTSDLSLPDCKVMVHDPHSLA
binder,measurement,setting,value
"p88 (88-kD protein), murine (natural protein) HDGHDDDAIDIEDDLDDVIEEVEDSKSKSDASTPPSPKVTYKAPVPTGEVYFADSFDRGSLSGWILSKAKKDDTDDEIAKYDGKWEVDEMKETKLPGDKGLVLMSRAKHHAISAKLNKPFLFDTKPLIVQYEVNFQNGIECGGAYVKLLSKTAELSLDQFHDKTPYTIMFGPDKCGEDYKLHFIFRHKNPKTGVYEEKHAKRPDADLKTYFTDKKTHLYTLILNPDNSFEILVDQSVVNSGNLLNDMTPPVNPSREIEDPEDRKPEDWDERPKIADPDAVKPDDWDEDAPSKIPDEEATKPEGWLDDEPEYIPDPDAEKPEDWDEDMDGEWEAPQIANPKCESAPGCGVWQRPMIDNPNYKGKWKPPMIDNPNYQGIWKPRKIPNPDFFEDLEPFKMTPFSAIGLELWSMTSDIFFDNFIISGDRRVVDDWANDGWGLKKAADGAAEPGVVLQMLEAAEERPWLWVVYILTVALPVFLVILFCCSGKKQSNAMEYKKTDAPQPDVKDEEGKEEEKNKRDEEEEEEKLEEKQKSDAEEDGVTGSQDEEDSKPKAEEDEILNRSPRNRKPRRE",percent of H chains crosslinked to p88,[1],50%
same,percent of H chains crosslinked to p88,[2],25%
